# In patent US10588972B2, “Phthalocyanine probes and uses thereof” (LI-COR, INC., priority 2014, dated 2020):
# Where “and” joins values, the source holds several entries; their conditions need not be identical. Equal entries are not always repeated. Where two headings read alike, the source gives them in different places.
# B1: 700DX-EGF (conjugate, UniProt P01133 23-1207, looked up)
# Pro-epidermal growth factor: PQHWSCPEGTLAGNGNSTCVGPAPFLIFSHGNSIFRIDTEGTNYEQLVVDAGVSVIMDFHYNEKRIYWVDLERQLLQRVFLNGSRQERVCNIEKNVSGMAINWINEEVIWSNQQEGIITVTDMKGNNSHILLSALKYPANVAVDPVERFIFWSSEVAGSLYRADLDGVGVKALLETSEKITAVSLDVLDKRLFWIQYNREGSNSLICSCDYDGGSVHISKHPTQHNLFAMSLFGDRIFYSTWKMKTIWIANKHTGKDMVRINLHSSFVPLGELKVVHPLAQPKAEDDTWEPEQKLCKLRKGNCSSTVCGQDLQSHLCMCAEGYALSRDRKYCEDVNECAFWNHGCTLGCKNTPGSYYCTCPVGFVLLPDGKRCHQLVSCPRNVSECSHDCVLTSEGPLCFCPEGSVLERDGKTCSGCSSPDNGGCSQLCVPLSPVSWECDCFPGYDLQLDEKSCAASGPQPFLLFANSQDIRHMHFDGTDYGTLLSQQMGMVYALDHDPVENKIYFAHTALKWIERANMDGSQRERLIEEGVDVPEGLAVDWIGRRFYWTDRGKSLIGRSDLNGKRSKIITKENISQPRGIAVHPMAKRLFWTDTGINPRIESSSLQGLGRLVIASSDLIWPSGITIDFLTDKLYWCDAKQSVIEMANLDGSKRRRLTQNDVGHPFAVAVFEDYVWFSDWAMPSVMRVNKRTGKDRVRLQGSMLKPSSLVVVHPLAKPGADPCLYQNGGCEHICKKRLGTAWCSCREGFMKASDGKTCLALDGHQLLAGGEVDLKNQVTPLDILSKTRVSEDNITESQHMLVAEIMVSDQDDCAPVGCSMYARCISEGEDATCQCLKGFAGDGKLCSDIDECEMGVPVCPPASSKCINTEGGYVCRCSEGYQGDGIHCLDIDECQLGEHSCGENASCTNTEGGYTCMCAGRLSEPGLICPDSTPPPHLREDDHHYSVRNSDSECPLSHDGYCLHDGVCMYIEALDKYACNCVVGYIGERCQYRDLKWWELRHAGHGQQQKVIVVAVCVVVLVMLLLLSLWGAHYYRTQKLLSKNPKNPYEESSRDVRSRRPADTEDGMSSCPQPWFVVIKEHQDLKNGGQPVAGEDGQAADGSMQPTSWRQEPQLCGMGTEQGCWIPVSSDKGSCPQVMERSFHMPSYGTQTLEGGVEKPHSLLSANPLWQQRALDPPHQMELTQ
# modifications: Pro-epidermal growth factor IRDye 700DX conjugate
# Experiments:
# Format in all cases: cell-based
# A431 cells [1] = test: Photodynamic therapy effect on cell morphology and viability (Example 3); details: for effect on cell morphology: probe 0.25 μM
# Source text: This example illustrates the effect of photodynamic therapy based on IRDye® 700DX dye conjugates on cell morphology. Other methods for evaluating changes in morphology during the PDT with additional tests of key apoptotic markers including caspase 3/7, annexin-V, vitality %, mitochondrial potential, localization (intracellular/membrane, endosomal, lysosomal), singlet oxygen generation, other radicals, etc. It was critical to identify important parameters for generating reproducible effects including irradiation level, incubation time, probe type and/or required dose to initiate cytotoxicity. By measuring these key indicators the actions of IRDye® 700DX in its ability to induce cytotoxicity was defined.
# FIGS. 6A-6B provide images of the controls which were A431 cells with no irradiation (NI) or with irradiation (I). The probe dose for the respective treatments was 0.25 μM and irradiation level was 16 J/cm^2. […] These are key features of cells undergoing apoptosis and/or necrosis.
# A431 cells [2] = test system: A431 cells
# Experimental: A different LED source was tested and evaluated to determine if a second source of LED would yield a similar effect as the standard LED used. A straight forward evaluation was set up with four treatments (treatments A-D). The tests were performed in triplicate in order to examine reproducibility. The test included the following four treatments: treatment A of no probe and irradiation, treatment B of IRdye® 700DX-labeled EGF and no irradiation, treatment C of IRDye® 700DX-labeled EGF and irradiation, and treatment D of IRDye® 700DX-labeled panitumumab and irradiation. The probe dose was about 0.1 μM labeled panitumumab and 0.5 μM 700DX-labeled EGF. Irradiation was for 10 minutes at an irradiation dose of 32 J/cm^2.
# Significant and similar effects for both probes together and in triplicate thus providing clear evidence that IRDye® 700DX-labeled small protein can kill cells similarly to an IRDye 700DX-labeled antibody. Conditions for use of either probe may be unique to the individual probe. […] The fluorescent scale of the 700 nm images was the same for both treated sets of cells (FIGS. 12C-12D). Although the exact concentration of the antibody probe is not known, the signals from the different probes appear similar in level and intensity.
# A431 cells [3] = test: Caspase 3/7 assay, doses of IRDye 700DX-labeled EGF (Table 4)
# Experimental: A431 cells were treated with IRDye® 700DX-labeled EGF at a concentration of about 0.1-1 μM for about 8 minutes and irradiated at about 32 J/cm^2.
# Briefly, 150,000 cells were plated and incubated overnight at 37° C., 5% CO2. About 1 ml of the probe was added to the appropriate treatments. The cells were rinsed after the incubation period and imaged. The cells were irradiated with a small LED apparatus. The cells were further incubated at 37° C., 5% CO2, and then imaged at 2-3 hours post irradiation. The cells were then harvested and resuspended in 250 μl PBS. The cells were counted in NC-100™ NucleoCounter® (ChemoMetec A/S; Allerod, Denmark). The cells were analyzed according to manufacturer's protocol to perform the caspase3/7 assay (ImmunoChemistry Technologies, LCC, Bloomington, Minn.). NC indicates negative control, e.g., no probe.
# HTB-186 cells [4] = test: JC-1 mitochondrial membrane potential assay (Example 10, Table 8); details: 32 J/cm^2, probe about 5 hours, 20 hours post irradiation; 700DX-RGD and 700DX-EGF 500 nM
# Experimental: This example illustrates the ability of IRDye® 700DX small molecule conjugates to induce apoptosis in cells, e.g., cancer cells. In this study HTB-186 cells (a desmoplastic cerebellar medulloblastoma cell line) were treated with IRDye® 700DX small molecule conjugates (IRDye® 700DX labeled chlorotoxin, anti-EGFR Affibody®, RGD peptide and EGF ligand). Apoptosis was measured by evaluating caspase 3/7 activity and mitochondrial membrane potential. […]
# In this study a mitochondrial membrane potential assay was performed on cells from treatments 1-8 to determine whether the treated cells underwent apoptosis. […] As JC-1 dye accumulated in mitochondria, its fluorescence emission shifts from green (about 529 nm) to red (about 590 nm). The presence of red fluorescence due to JC-1 aggregate formation corresponds to regions of high mitochondrial polarization. Depolarized mitochondria are indicated by green fluorescence of the JC-1 monomers. A detectable decrease in the red/green fluorescence intensity ratio indicates mitochondrial depolarization, and thus, apoptosis. In a membrane potential assay, cells are incubated with the JC-1 dye and fluorescence is detected by, for example, flow cytometry, fluorescence microscopy, and fluorescence-based image cytometry. […]
# HTB-186 cells [5] = test: Viability, cell number and microscopy morphology at 20 h post irradiation (Example 10)
# Experimental: This example illustrates the ability of IRDye® 700DX small molecule conjugates to induce apoptosis in cells, e.g., cancer cells. In this study HTB-186 cells (a desmoplastic cerebellar medulloblastoma cell line) were treated with IRDye® 700DX small molecule conjugates (IRDye® 700DX labeled chlorotoxin, anti-EGFR Affibody®, RGD peptide and EGF ligand). Apoptosis was measured by evaluating caspase 3/7 activity and mitochondrial membrane potential. Apoptosis can be characterized by a variety of cell morphological and biochemical changes including membrane blebbing, cell shrinkage, alteration of membrane asymmetry and permeability, and/or condensation of chromatin and nucleus (Coleman et al., Nat Cell Biol, 2001, 3(4):339-45, Bortner and Cidlowski, Biochem Pharmacol, 1998, 56(12):1549-59; van Engeland et al., Experimental Cell Research, 1997, 235:421-430).
# Microscopy images of cells in petri-dishes were captured at 20 h post irradiation. The images were captured in DIC and 700 nm to visualize the probe, and composite images were generated (DIC+700 nm) to visualize the overlay.
# To determine whether the treated cells are undergoing apoptosis, a caspase 3/7 assay and mitochondrial potential assay were performed. All cells from each treatment were recovered and processed accordingly. Table 8 below provides cells number, % viability, JC-1% shift, and % late apoptotic and dead cells as determined by caspase 3/7 assay.
# [6] = no irradiation (NI), 700DX-EGF 0.5 μM
# [7] = 0.1 μM, Irradiation about 32 J/cm^2
# [8] = 0.25 μM, Irradiation about 32 J/cm^2
# [9] = 0.5 μM, Irradiation about 32 J/cm^2
# [10] = 1 μM, Irradiation about 32 J/cm^2
# [11] = 32 J/cm^2, probe about 5 hours, 20 hours post irradiation, 700DX-RGD and 700DX-EGF 500 nM
molecule,measurement,setting,value
B1,cytotoxicity by cell viability,A431 cells [1]; 24 h post irradiation,only the probe treated with irradiation induced cytotoxicity
same,effect on cell morphology,A431 cells [1]; irradiation 16 J/cm^2,dramatically altered with condensation of nuclei and cell dehydration
same,effect on cell morphology,A431 cells [1]; no irradiation (NI),no deleterious effect on cell morphology
same,effect on cells (morphology),"A431 cells [2]; irradiated 10 minutes, 32 J/cm^2",severely affected by the irradiating energy and were dying
same,Cells/mL,"A431 cells [2]; irradiated (I) 10 minutes, 32 J/cm^2, 700DX-EGF 0.5 μM, 700DX-Pan about 0.1 μM",2.8 × 10^5 Cells/mL and 4.1 × 10^5 Cells/mL and 3.8 × 10^5 Cells/mL
same,% Vitality,A431 cells [2]; [6],97.9% and 98.3% and 96.0%
same,Cells/mL,A431 cells [2]; [6],6.6 × 10^5 Cells/mL and 8.0 × 10^5 Cells/mL and 7.7 × 10^5 Cells/mL
same,VB-48 % necrotic,A431 cells [2]; [6],11% and 12% and 10%
same,% Healthy,A431 cells [3]; [7],72%
same,% Necrotic,A431 cells [3]; [7],10%
same,Cells/mL,A431 cells [3]; [7],4.6 × 10^5 Cells/mL
same,Early % Apoptotic,A431 cells [3]; [7],8%
same,Late % Apoptotic,A431 cells [3]; [7],11%
same,% Healthy,A431 cells [3]; [8],61%
same,% Necrotic,A431 cells [3]; [8],16%
same,Cells/mL,A431 cells [3]; [8],4.8 × 10^5 Cells/mL
same,Early % Apoptotic,A431 cells [3]; [8],5%
same,Late % Apoptotic,A431 cells [3]; [8],18%
same,% Healthy,A431 cells [3]; [9],52%
same,% Necrotic,A431 cells [3]; [9],17%
same,Cells/mL,A431 cells [3]; [9],4 × 10^5 Cells/mL
same,Early % Apoptotic,A431 cells [3]; [9],6%
same,Late % Apoptotic,A431 cells [3]; [9],26%
same,% Healthy,A431 cells [3]; [10],52%
same,% Necrotic,A431 cells [3]; [10],15%
same,Cells/mL,A431 cells [3]; [10],4 × 10^5 Cells/mL
same,Early % Apoptotic,A431 cells [3]; [10],9%
same,Late % Apoptotic,A431 cells [3]; [10],24%
same,% Healthy,"A431 cells [3]; 1 μM, No Irradiation",87%
same,% Necrotic,"A431 cells [3]; 1 μM, No Irradiation",3%
same,Cells/mL,"A431 cells [3]; 1 μM, No Irradiation",5.4 × 10^5 Cells/mL
same,Early % Apoptotic,"A431 cells [3]; 1 μM, No Irradiation",6%
same,Late % Apoptotic,"A431 cells [3]; 1 μM, No Irradiation",4%
same,mode of cell death,A431 cells [3]; irradiating light at about 32 J/cm^2,undergo apoptosis
same,JC-1 % shift,HTB-186 cells [4],42%
same,cell morphology,"HTB-186 cells [5]; 32 J/cm^2, 20 h post irradiation",appeared rounded and smaller
same,% Viability,HTB-186 cells [5]; [11],75.7%
same,Cell #,HTB-186 cells [5]; [11],0.7E6
